Measurements taken from IntAct's records for PubMed 12606577.

Legend:
pak1_human PAK1 = pak1_human PAK1 (UniProt Q13153)
par6b_mouse Pard6b = par6b_mouse Pard6b (UniProt Q9JK83)
par6b_mouse Pard6b, sequence (Q9JK83 whole entry): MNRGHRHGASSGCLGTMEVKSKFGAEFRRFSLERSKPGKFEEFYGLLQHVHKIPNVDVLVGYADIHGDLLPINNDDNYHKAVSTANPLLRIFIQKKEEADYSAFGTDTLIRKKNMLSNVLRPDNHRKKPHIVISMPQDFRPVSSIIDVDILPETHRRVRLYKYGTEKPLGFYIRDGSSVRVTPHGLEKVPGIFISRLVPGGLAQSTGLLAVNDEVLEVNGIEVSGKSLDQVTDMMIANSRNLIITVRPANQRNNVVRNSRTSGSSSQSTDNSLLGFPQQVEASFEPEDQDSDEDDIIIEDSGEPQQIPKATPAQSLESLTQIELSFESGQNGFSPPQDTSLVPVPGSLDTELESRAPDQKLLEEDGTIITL

Cell division control protein 42 homolog (Homo sapiens), P60953 D38A, sequence (P60953 whole entry D38A): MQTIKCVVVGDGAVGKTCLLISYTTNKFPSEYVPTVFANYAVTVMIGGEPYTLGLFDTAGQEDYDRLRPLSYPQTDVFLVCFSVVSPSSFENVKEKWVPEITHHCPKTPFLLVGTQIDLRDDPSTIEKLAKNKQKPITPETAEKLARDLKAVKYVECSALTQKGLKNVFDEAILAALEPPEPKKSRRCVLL
Cell division control protein 42 homolog (Homo sapiens), P60953 Y40K, sequence (P60953 whole entry Y40K): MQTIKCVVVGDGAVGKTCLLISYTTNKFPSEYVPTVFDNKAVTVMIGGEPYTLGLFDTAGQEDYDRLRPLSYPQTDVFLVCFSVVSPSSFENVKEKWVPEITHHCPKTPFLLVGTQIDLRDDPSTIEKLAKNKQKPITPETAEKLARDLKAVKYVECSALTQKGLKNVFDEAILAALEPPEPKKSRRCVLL
pak1_human PAK1, sequence (Q13153 whole entry): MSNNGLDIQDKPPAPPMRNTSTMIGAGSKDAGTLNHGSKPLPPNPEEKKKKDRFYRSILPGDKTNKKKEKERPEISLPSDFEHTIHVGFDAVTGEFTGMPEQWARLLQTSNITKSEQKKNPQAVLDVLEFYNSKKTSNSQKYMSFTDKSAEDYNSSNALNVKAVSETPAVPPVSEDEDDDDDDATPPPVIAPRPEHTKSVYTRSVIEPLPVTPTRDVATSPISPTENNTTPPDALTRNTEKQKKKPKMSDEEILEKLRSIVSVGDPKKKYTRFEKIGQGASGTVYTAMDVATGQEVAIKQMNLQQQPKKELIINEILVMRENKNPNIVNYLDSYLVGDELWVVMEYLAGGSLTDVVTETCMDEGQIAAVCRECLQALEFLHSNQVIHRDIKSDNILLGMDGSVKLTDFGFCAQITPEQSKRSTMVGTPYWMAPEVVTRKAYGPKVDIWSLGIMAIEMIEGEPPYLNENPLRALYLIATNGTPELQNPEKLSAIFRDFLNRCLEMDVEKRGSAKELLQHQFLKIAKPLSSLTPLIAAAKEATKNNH
Cell division control protein 42 homolog (Homo sapiens), P60953 F37A, sequence (P60953 whole entry F37A): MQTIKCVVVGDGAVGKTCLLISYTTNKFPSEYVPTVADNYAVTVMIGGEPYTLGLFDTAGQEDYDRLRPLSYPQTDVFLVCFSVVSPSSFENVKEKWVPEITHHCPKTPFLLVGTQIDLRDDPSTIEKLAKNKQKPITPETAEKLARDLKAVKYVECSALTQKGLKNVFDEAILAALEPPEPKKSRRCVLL

effect of a mutation on the interaction (pak1_human PAK1)	effect of a mutation on the interaction (par6b_mouse Pard6b)	Substance
decreasing interaction	decreasing interaction	Cell division control protein 42 homolog (Homo sapiens), P60953 D38A
	decreasing interaction	Cell division control protein 42 homolog (Homo sapiens), P60953 F37A
decreasing interaction	decreasing interaction	Cell division control protein 42 homolog (Homo sapiens), P60953 Y40K
